Laboratory results published in US12747297 (dated 2026).
Where a chain is given by its changes, count along the chain named.

B1: 5R65.39 (antibody, V domains shown)
VH: QVQLVQSGAEVKKPGSSVKVSCKASGYTFTSYWINWVRQAPGQGLEWIGHIYPNKNENYYNHKFKDKATLTVDKSTNTAYMELSSLRSEDTAVYYCTREFYGRSRYSAMDYWGQGTTLTVSS
VL: DIQMTQSPSTLSASVGDRVTITCKASQNVGTAVAWYQQKPGKAPKLLIYWASTRHTGVPDRFSGSGSGTDFTLTISSLQPDDFATYYCQQFGRYPYTFGSGTKVEVK
B2: 5R65.7 (antibody, V domains shown)
VH: B1 VH with S104Q, R105Y, S107Q
VL: B1 VL
B3: 5R65 (antibody, V domains shown)
VH: B1 VH with E99D, F100Y, R105Y, S107Y
VL: B1 VL
B4: 5R65.18 (antibody, V domains shown)
VH: B1 VH with F100Y, S104T, R105Y
VL: B1 VL
B5: 5R65.14 (antibody, V domains shown)
VH: B1 VH with F100H, S104P, R105Y, S107N
VL: B1 VL
B6: 5R65.10 (antibody, V domains shown)
VH: B1 VH with F100Y, R105Y, S107A
VL: B1 VL
B7: 4R.N8 (antibody, V domains shown)
VH: EVQLLESGGGLVQPGGSLRLSCAASGFTFSRHAMAWVRQAPGKGLEWVSAITMSGRSIYYADSVKGRFTISRDNSKNTLYLQMNSLRAEDTAVYYCARVHRAFDYWGQGTLVTVSS
VL: QSVLTQPPSASGTPGQRVTISCSGSPLFPDSGSFNWYQQLPGTAPKLLIYADSHRPSGVPDRFSGSKSGTSASLAISGLRSEDEADYYCGTWDYSLSRYVLGGGTKLTVLG
B8: 4R.N2 (antibody, V domains shown)
VH: B7 VH with M53A, A61G
VL: B7 VL with R98A

Molecular target: sIL-4Rα (human)
Assay: not given

Sequence of sIL-4Rα (human) (chain, as listed by the source): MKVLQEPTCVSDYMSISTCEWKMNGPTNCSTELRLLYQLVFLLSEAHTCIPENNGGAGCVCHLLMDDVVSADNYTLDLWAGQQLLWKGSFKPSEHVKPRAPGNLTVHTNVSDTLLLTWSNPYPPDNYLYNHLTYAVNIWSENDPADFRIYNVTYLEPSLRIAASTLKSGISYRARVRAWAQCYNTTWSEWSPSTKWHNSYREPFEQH

Binder | binding result
B1 | no binding
B2 | no binding
B3 | no binding
B4 | no binding
B5 | no binding
B6 | no binding

Molecular target: sIL-4Rα (human)
Assay: BLI

Binder | Kd [nM]
B7 | 0.0802
B8 | 0.108
